Data as given in paper PMC11457862.

Experiments:
[1] = molecular target: biotinylated human IL-2 (amino acids 1-133, C-terminal biotin acceptor peptide) (human) (UniProt P60568); assay: BLI; same set-up as a1; equilibrium titration of the response at the end of the association phase, first-order fit (Figures 2 and 3, Supplemental Table 1)
[2] = molecular target: T1, biotinylated human IL-2Rβ ectodomain (amino acids 1-214) (human) (UniProt P14784); assay: as above
T1 sequence (chain, biotin on the biotin acceptor peptide (BirA ligase)): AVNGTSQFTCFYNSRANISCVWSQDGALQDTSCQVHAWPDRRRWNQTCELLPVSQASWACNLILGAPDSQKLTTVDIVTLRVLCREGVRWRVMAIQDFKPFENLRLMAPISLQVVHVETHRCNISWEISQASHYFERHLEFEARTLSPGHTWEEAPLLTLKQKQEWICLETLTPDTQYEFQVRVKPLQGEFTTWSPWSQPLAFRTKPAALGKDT

[3] = molecular target: biotinylated human IL-2Rα ectodomain (amino acids 1-217) (human); assay: as above
[4] = molecular target: biotinylated human IL-2 (amino acids 1-133, C-terminal biotin acceptor peptide) (human) (UniProt P60568); assay: BLI; biotinylated human IL-2, IL-2Rα or IL-2Rβ on streptavidin tips (Octet Red96); soluble analyte in PBSA (PBS pH 7.2, 0.1% BSA), 300 s association; kinetic fit, 1:1 binding model; IL-2/602 Cx 2:1 by the legend (Supplemental Figure 2, Supplemental Table 1)
[5] = molecular target: T1, biotinylated human IL-2Rβ ectodomain (amino acids 1-214) (human); assay: as above
[6] = molecular target: T1, biotinylated human IL-2Rβ ectodomain (amino acids 1-214) (human); assay: BLI; biotinylated human IL-2 or IL-2Rβ on streptavidin tips; engineered 602 IC variants and controls in PBSA; kinetic fit, 1:1 binding model (Supplemental Figure 5, Supplemental Table 4)
[7] = molecular target: biotinylated human IL-2 (amino acids 1-133, C-terminal biotin acceptor peptide) (human) (UniProt P60568); assay: BLI; same set-up as a5; equilibrium titration, first-order fit (Supplemental Figure 6C,D, Supplemental Table 5)
[8] = molecular target: biotinylated human IL-2 (amino acids 1-133, C-terminal biotin acceptor peptide) (human) (UniProt P60568); assay: BLI; same set-up as a3; equilibrium titration, first-order fit (Supplemental Figure 4A-C, Supplemental Table 4)
[9] = molecular target: T1, biotinylated human IL-2Rβ ectodomain (amino acids 1-214) (human); assay: as above
[10] = molecular target: biotinylated mouse IL-2Rα (mouse) (UniProt P01590); assay: BLI; biotinylated mouse IL-2Rα or IL-2Rβ on streptavidin tips; ICs or 602 Ab in PBSA; kinetic fit, 1:1 binding model (Supplemental Figure 6E,F, Supplemental Table 1)
biotinylated mouse IL-2Rα (mouse), sequence (P01590 22-268): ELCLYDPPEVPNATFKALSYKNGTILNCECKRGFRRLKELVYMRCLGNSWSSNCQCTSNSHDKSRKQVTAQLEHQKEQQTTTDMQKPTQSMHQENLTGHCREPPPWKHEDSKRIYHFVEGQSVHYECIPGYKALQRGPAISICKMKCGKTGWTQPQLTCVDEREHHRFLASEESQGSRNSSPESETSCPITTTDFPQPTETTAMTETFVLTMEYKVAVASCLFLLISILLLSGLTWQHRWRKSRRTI

[11] = molecular target: biotinylated mouse IL-2Rβ (mouse) (UniProt P16297); assay: as above
biotinylated mouse IL-2Rβ (mouse), sequence (P16297 27-539): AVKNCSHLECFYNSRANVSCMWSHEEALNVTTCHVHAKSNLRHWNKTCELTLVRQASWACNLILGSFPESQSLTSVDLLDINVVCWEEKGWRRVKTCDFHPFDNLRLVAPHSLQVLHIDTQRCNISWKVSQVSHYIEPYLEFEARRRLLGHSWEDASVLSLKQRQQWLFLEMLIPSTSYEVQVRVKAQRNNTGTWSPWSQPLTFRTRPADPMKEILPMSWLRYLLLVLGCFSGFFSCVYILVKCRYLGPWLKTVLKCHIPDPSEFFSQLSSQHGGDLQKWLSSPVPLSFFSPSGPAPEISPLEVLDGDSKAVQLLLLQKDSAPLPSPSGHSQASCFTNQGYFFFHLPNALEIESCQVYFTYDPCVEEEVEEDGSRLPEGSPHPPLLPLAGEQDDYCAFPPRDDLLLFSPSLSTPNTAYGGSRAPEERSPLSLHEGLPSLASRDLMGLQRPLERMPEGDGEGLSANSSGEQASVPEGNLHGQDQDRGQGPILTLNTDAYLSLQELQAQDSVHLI

[12] = molecular target: biotinylated mouse IL-2Rβ (mouse) (UniProt P16297); assay: BLI; same set-up as a7; equilibrium titration, first-order fit (Supplemental Figure 6G,H, Supplemental Table 1)
[13] = molecular target: biotinylated human IL-2 (amino acids 1-133, C-terminal biotin acceptor peptide) (human) (UniProt P60568); assay: BLI; biotinylated human IL-2 or IL-2Rβ on streptavidin tips; engineered 602 IC variants and controls in PBSA; kinetic fit, 1:1 binding model (Supplemental Figure 5, Supplemental Table 4)
[14] = molecular target: biotinylated human IL-2Rα ectodomain (amino acids 1-217) (human); assay: BLI; biotinylated human IL-2, IL-2Rα or IL-2Rβ on streptavidin tips (Octet Red96); soluble analyte in PBSA (PBS pH 7.2, 0.1% BSA), 300 s association; kinetic fit, 1:1 binding model; IL-2/602 Cx 2:1 by the legend (Supplemental Figure 2, Supplemental Table 1)

IL-2/602 complex (human IL-2 mixed with 602 antibody), sequence (VH): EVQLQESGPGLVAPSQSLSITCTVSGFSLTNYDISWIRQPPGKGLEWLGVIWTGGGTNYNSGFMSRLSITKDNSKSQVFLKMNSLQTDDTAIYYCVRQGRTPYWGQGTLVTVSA
IL-2/602 complex (human IL-2 mixed with 602 antibody), sequence (VL): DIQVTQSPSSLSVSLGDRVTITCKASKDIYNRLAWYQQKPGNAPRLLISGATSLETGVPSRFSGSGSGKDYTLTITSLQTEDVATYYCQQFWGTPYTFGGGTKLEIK

Row | Substance | Kd [1] [nM] | Kd [2] [nM] | Kd [3] [nM] | Kd [4] [nM] | Kd [5] [nM] | Kd [6] [nM] | Kd [7] [nM] | Kd [8] [nM] | Kd [9] [nM] | Kd [10] [nM] | Kd [11] [nM] | Kd [12] [nM] | Kd [13] [nM] | Kd [14] [nM]
1 | 602 immunocytokine with 15-amino-acid linker (IL-2-(G4S)3-602 light chain + 602 heavy chain) (from UniProt P60568 21-153) | 905 | 8.4 | > 2000 | 88.3 | – | – | – | – | – | – | – | – | – | –
2 | 602 immunocytokine with 25-amino-acid linker (IL-2-(G4S)5-602 light chain + 602 heavy chain) (from UniProt P60568 21-153) | 941 | – | > 2000 | 76.9 | 3.66 | – | – | – | – | – | – | – | – | –
3 | 602 immunocytokine with 35-amino-acid linker (IL-2-(G4S)7-602 light chain + 602 heavy chain) (from UniProt P60568 21-153) | > 2000 | 5 | > 2000 | 143 | 4.22 | 0.26 | > 2000 | > 2000 | 5.4 | – | – | – | – | –
4 | Control immunocytokine (IL-2-(G4S)7-light chain of anti-fluorescein antibody 4-4-20 + 4-4-20 heavy chain) (from UniProt P60568 21-153) | > 2000 | – | 5.2 | – | 0.18 | – | > 2000 | – | – | 4.74 | > 10000 | > 10000 | – | –
5 | IL-2/602 complex (human IL-2 mixed with 602 antibody) (from UniProt P60568 21-153) | 103 | 5.2 | – | 10.6 | 3.89 | 0.3 | 168 | 74 | 6 | – | – | – | 13.3 | 0.55
6 | human IL-2 (amino acids 1-133), soluble (from UniProt P60568 21-153) (ligand) | – | – | 7.3 | – | – | – | – | – | – | – | – | – | – | 3.2
